# Experimental data taken from paper PMC11083199, “Cytokine Receptor-like Factor 1 (CRLF1) and Its Role in Osteochondral Repair” (Cells, 2024).
# B1: Cytokine receptor-like factor 1 (CRLF1) (natural protein, human, UniProt O75462 38-422, looked up)
# chain: AHTAVISPQDPTLLIGSSLLATCSVHGDPPGATAEGLYWTLNGRRLPPELSRVLNASTLALALANLNGSRQRSGDNLVCHARDGSILAGSCLYVGLPPEKPVNISCWSKNMKDLTCRWTPGAHGETFLHTNYSLKYKLRWYGQDNTCEEYHTVGPHSCHIPKDLALFTPYEIWVEATNRLGSARSDVLTLDILDVVTTDPPPDVHVSRVGGLEDQLSVRWVSPPALKDFLFQAKYQIRYRVEDSVDWKVVDDVSNQTSCRLAGLKPGTVYFVQVRCNPFGIYGSKKAGIWSEWSHPTAASTPRSERPGPGGGACEPRGGEPSSGPVRRELKQFLGWLKKHAYCSNLSFRLYDQWRAWMQKSHKTRNQDEGILPSGRRGTARGPAR
# notes: Cytokine receptor-like factor 1, human, full-length cDNA cloned into an AAV vector; released into the medium by BMSCs; Full-length cDNA was cloned into the backbone pENN.AAV.CB7.Cl.eGFP.WPRE.rBG (Addgene 105542 is the vector, not this construct); Bands: ~110 kDa non-reduced, 55 kDa reduced; also called CRLF1dim; CRLF1mon; source: human BMSCs transduced with AAV containing CRLF1, in conditioned …
# Molecular target: the molecule itself
# Assay: non-reducing and reducing SDS gel electrophoresis with immunoblot; conditioned medium of BMSCs transduced with AAV-CRLF1; NuPAGE SDS sample buffer without and with reducing agent, 70 °C for 10 min, 10% bis-Tris gels; blotted with antibodies specific for CRLF1 or CLC
protein,measurement,value
B1,stoichiometry N,2
